# Measurements published in doi:10.1101/2020.10.14.337444.
# Legend:
# ENO1 wt = ENO1 wt (Homo sapiens, UniProt P06733 1-434); assay: competition EMSA
# ENO1down = ENO1down (Homo sapiens, UniProt P06733 1-434, K343A); assay: competition EMSA
# ENO1down, sequence (P06733 whole entry K343A): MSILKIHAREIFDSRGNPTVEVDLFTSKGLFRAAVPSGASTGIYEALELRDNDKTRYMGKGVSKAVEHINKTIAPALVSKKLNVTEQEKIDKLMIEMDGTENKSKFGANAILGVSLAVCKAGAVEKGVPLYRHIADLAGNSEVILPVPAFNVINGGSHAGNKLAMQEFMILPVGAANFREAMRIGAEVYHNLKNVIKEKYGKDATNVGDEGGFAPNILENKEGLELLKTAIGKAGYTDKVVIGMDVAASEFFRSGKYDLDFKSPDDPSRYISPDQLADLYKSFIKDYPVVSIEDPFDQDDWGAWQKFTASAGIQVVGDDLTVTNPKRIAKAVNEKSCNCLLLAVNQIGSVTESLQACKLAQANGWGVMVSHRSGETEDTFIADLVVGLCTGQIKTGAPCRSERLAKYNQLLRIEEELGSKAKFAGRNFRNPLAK
# ENO1 wt, sequence (P06733 whole entry): as the sequence (P06733 whole entry K343A) above, with A343K counted along it
Binder,Ki (ENO1 wt) [nM],Ki (ENO1down) [nM]
CCUCUUUUAUAAAAUAACCCGGUGAAGCAGCCGAG (ssRNA) [PABPC1 target 35-mer],27 ± 19,224 ± 12
GGCCCCCAGCCCCGGCACUCGCUCUCCUCCUCUCA (ssRNA) [PABPC1 control 35-mer],2587 ± 9,3261 ± 12
